This passage reports ECL signal results from US20120058906A1 (published 2012).

Assay [1] has as its target T1, rHuman IGF-1 sR, CF (R&D Systems Cat#391-GR) (human, UniProt P08069 31-932).
T1 construct: Bought soluble receptor; also called insulin-like growth factor-1 soluble receptor; IGF-R1
Briefly: ECL (MSD multi-spot) titration, Fab at 360 nM; blank spot 462.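 Also: blank spot per well as comparator with Hit at signal to blank ratio of 4 or more.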

Assay [2] addresses T2, rHuman CD44/Fc Chimera, CF (R&D Systems Cat#3660-CD) (human, UniProt P16070 21-220).
T2 construct: Bought protein; not shown: Fc of the bought chimera
The description is as above.

The target in assay [3] is T3, rHuman Erythropoietin R/Fc Chimera, CF (R&D Systems Cat#963-ER) (human, UniProt P19235 25-250).
T3 construct: Bought protein; also called EPO R/Fc; EPOR; not shown: Fc of the bought chimera
T3 sequence: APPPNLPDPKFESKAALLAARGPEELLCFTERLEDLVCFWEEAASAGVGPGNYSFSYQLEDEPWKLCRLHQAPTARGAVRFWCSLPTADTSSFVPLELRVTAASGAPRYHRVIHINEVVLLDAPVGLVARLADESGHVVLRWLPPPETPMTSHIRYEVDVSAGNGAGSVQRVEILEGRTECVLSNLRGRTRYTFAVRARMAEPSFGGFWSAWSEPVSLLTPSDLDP
The assay is described as above.

Assay [4] addresses T4, rHuman HGF R/c-MET/Fc Chimera, CF (R&D Systems Cat#358-MT/CF) (human, UniProt P08581 25-932).
T4 construct: Bought protein; also called HGF R/Fc; hepatocyte growth factor receptor; not shown: Fc of the bought chimera
Described as above.

Assay [5] concerns the target T5, rHuman ErbB2/Fc Chimera, CF (R&D Systems Cat#1129-ER) (human, UniProt P04626 23-652).
T5 construct: Bought protein; also called HER2/neu; human epidermal growth factor 2 receptor; not shown: Fc of the bought chimera
The assay is described as above.

Assay [6] has as its target T6, rHuman P-Cadherin/Fc Chimera, CF (R&D Systems Cat#861-PC) (human, UniProt P22223 108-654).
T6 construct: Bought protein; not shown: Fc of the bought chimera
The description is as above.

For assay [7], the target named is T1, rHuman IGF-1 sR, CF (R&D Systems …). Put plainly: ECL (MSD multi-spot) titration, Fab at 36 nM; blank spot 413.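 Also: blank spot per well as comparator with Hit at signal to blank ratio of 4 or more.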
The target of assay [8] is T2, rHuman CD44/Fc Chimera, CF (R&D Systems …). Described as above.
Assay [9] deals with T3, rHuman Erythropoietin R/Fc Chimera, CF …. The description is as above.
Assay [10] deals with T4, rHuman HGF R/c-MET/Fc Chimera, CF (R&D …). Described as above.
Assay [11] concerns the target T5, rHuman ErbB2/Fc Chimera, CF (R&D …). The description is as above.
For assay [12], the target named is T6, rHuman P-Cadherin/Fc Chimera, CF (R&D …). The assay is described as above.
In assay [13] the target is T7, rHuman ErbB2/Fc Chimera, CF (R&D Systems Cat#1129-ER) (human, UniProt P04626 23-652).
T7 construct: Bought protein; also called HER2/neu; human epidermal growth factor 2 receptor; Fc part of the bought chimera not given
Briefly: MSD ECL multi-spot assay, antigen spotted on plate, Fab 1.57 uM; blank spot 797.

Assay [14] deals with T8, rHuman Notch-1/Fc Chimera, CF (R&D Systems Cat#3647-TK) (human, UniProt P46531 19-526).
T8 construct: Bought protein; Fc part of the bought chimera not given
The description is as above.

In assay [15] the target is T9, rHuman CD44/Fc Chimera, CF (R&D Systems Cat#3660-CD) (human, UniProt P16070 21-220).
T9 construct: Bought protein; Fc part of the bought chimera not given
Described as above.

The target of assay [16] is T10, rHuman Erythropoietin R/Fc Chimera, CF (R&D Systems Cat#963-ER) (human, UniProt P19235 25-250).
T10 construct: Bought protein; also called EPOR; EPO R/Fc; Fc part of the bought chimera not given
T10 sequence: T3 sequence
The assay is described as above.

The target in assay [17] is T11, rHuman HGF R/c-MET/Fc Chimera, CF (R&D Systems Cat#358-MT/CF) (human, UniProt P08581 25-932).
T11 construct: Bought protein; also called HGF R/Fc; hepatocyte growth factor receptor; Fc part of the bought chimera not given
The assay is described as above.

Assay [18] has as its target T12, rHuman IGF-1 sR (IGF-1 sR), CF (R&D Systems Cat#391-GR) (human, UniProt P08069 31-932).
T12 construct: Bought soluble receptor; also called insulin-like growth factor-1 soluble receptor; IGF-R1
The assay is described as above.

The target in assay [19] is T13, Recombinant Human DLL4 (R&D Systems Cat#1506-D4/CF) (human, UniProt Q9NR61 27-524).
T13 construct: Bought protein; also called delta-like protein 4; rHuman DLL4
Described as above.

Assay [20] concerns the target T7, rHuman ErbB2/Fc Chimera, CF (R&D …). Briefly: MSD ECL multi-spot assay, antigen spotted on plate, Fab 0.93 uM; blank spot 859.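 Also: blank spot per well as comparator with Hit at signal to blank ratio of 4 or more.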
Assay [21] deals with T8, rHuman Notch-1/Fc Chimera, CF (R&D …). The assay is described as above.
Assay [22] addresses T14, rHuman P-Cadherin/Fc Chimera, CF (R&D Systems Cat#861-PC) (human, UniProt P22223 108-654).
T14 construct: Bought protein; also called CDH3; Fc part of the bought chimera not given
The description is as above.

The target of assay [23] is T9, rHuman CD44/Fc Chimera, CF (R&D Systems …). Described as above.
For assay [24], the target named is T10, rHuman Erythropoietin R/Fc Chimera, CF …. The assay is described as above.
Assay [25] deals with T12, rHuman IGF-1 sR (IGF-1 sR), CF (R&D …). Described as above.
Assay [26] has as its target T13, Recombinant Human DLL4 (R&D Systems …). The description is as above.

B1: Fab VH4-28_IGHD7-27*01_IGHJ1*01 & L2_IGKJ1*01 (Fab, V domains shown)
VH: QVQLQESGPGLVKPSDTLSLTCAVSGYSISSSNWWGWIRQPPGKGLEWIGYIYYSGSTYYNPSLKSRVTMSVDTSKNQFSLKLSSVTAVDTAVYYCARTNWGAEYFQHWGQGTLVTVSS
VL: not shown
notes: also called Fab No. 1
Consider B1, for which the ECL signal in assay [1] came to 535; in assay [2] it was 740; in assay [3], 4720; in [4], 581; in assay [5], 647; in assay [6], 636. The ECL signal was 486 in assay [7]; 679 in assay [8]; 2980 in assay [9]; 613 in assay [10]; 600 in assay [11]; 693 in assay [12].

B2: Fab VH1-46_IGHD3-10*01_IGHJ4*01 & O1_IGKJ1*01 (Fab, V domains shown)
VH: QVQLVQSGAEVKKPGASVKVSCKASGYTFTSYYMHWVRQAPGQGLEWMGIINPSGGSTSYAQKFQGRVTMTRDTSTSTVYMELSSLRSEDTAVYYCAREYYYGSGSYYNDYFDYWGQGTLVTVSS
VL: DIVMTQTPLSLPVTPGEPASISCRSSQSLLDSDDGNTYLDWYLQKPGQSPQLLIYTLSYRASGVPDRFSGSGSGTDFTLKISRVEAEDVGVYYCMQRIEFPSWTFGQGTKVEIK
notes: Fab from E. coli; VH joined to the CH1 (Flag and His tags) of Plasmid A, VL to the kappa CL of Plasmid C
In the case of B2, the ECL signal was determined as 904 in [13]; 1260 in assay [14]; 836 in assay [15]; 6390 in assay [16]; 1040 in assay [17]; 985 in assay [18]. Further, the ECL signal in [19] amounted to 1500.

B3: Fab VH1-46_IGHD6-13*01_IGHJ4*01 & O1_IGKJ1*01 (Fab, V domains shown)
VH: QVQLVQSGAEVKKPGASVKVSCKASGYTFTSYYMHWVRQAPGQGLEWMGIINPSGGSTSYAQKFQGRVTMTRDTSTSTVYMELSSLRSEDTAVYYCAREGYSSSWYDYFDYWGQGTLVTVSS
VL: B2 VL
notes: as for B2
As for B3, the ECL signal in assay [20] worked out at 1610; in assay [21], 1920; in [22], 2420; in assay [23], 1450; in assay [24], 4240; in assay [25], 1790. Further, the ECL signal in [26] came out at 9630.
